Assay results taken from patent US20190309033A1 (Eli Lilly, published 2019).

T1: human GFRAL (NCBI Ref. Sequence No. NP_997293.2) expressed on HEK293 cells with human RET51 (human, UniProt Q6UXV0 19-394)
T1 sequence (looked up): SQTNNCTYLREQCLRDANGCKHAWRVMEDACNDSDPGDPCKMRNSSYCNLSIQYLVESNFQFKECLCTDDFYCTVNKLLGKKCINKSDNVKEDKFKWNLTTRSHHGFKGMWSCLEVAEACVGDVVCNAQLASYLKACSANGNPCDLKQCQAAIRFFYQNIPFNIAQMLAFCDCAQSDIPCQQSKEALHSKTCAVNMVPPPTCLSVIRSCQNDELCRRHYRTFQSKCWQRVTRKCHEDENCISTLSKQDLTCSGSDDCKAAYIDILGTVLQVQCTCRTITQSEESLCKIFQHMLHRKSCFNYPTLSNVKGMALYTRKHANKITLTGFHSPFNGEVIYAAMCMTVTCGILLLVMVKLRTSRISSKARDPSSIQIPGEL

T2: HIS-tagged human GFRAL ECD (human, UniProt Q6UXV0 20-338)
T2 construct: Produced in CHOK1 cell derivatives; also called Human GFRAL ECD (D1-D2-D3-ECD) Receptor; soluble human GFRAL extracellular domain
T2 sequence: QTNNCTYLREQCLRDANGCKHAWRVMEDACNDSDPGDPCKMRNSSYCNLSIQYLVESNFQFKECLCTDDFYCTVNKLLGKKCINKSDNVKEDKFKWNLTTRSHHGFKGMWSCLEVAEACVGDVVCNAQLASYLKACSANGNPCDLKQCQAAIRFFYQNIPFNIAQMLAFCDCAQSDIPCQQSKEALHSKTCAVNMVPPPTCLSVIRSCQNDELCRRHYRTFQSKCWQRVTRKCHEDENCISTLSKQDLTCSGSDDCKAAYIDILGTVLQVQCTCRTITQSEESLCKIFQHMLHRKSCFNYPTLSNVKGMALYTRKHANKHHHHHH


What was measured:
[1] = molecular target: T1, human GFRAL (NCBI Ref. Sequence No. …); test: cell-based or functional assay
[2] = molecular target: T2, HIS-tagged human GFRAL ECD; test: SPR, Biacore T200, 25 C; compound captured by immobilized anti-GDF15 antibody, GFRAL ECD as analyte; 1:1 fit
Experimental: To measure human GDF15 (des-ARN SEQ ID NO:1) or Compound 2 binding to human GFRAL ECD, a Biacore T200 Instrument is used to measure the binding kinetics of human GDF15 homodimer (des-ARN SEQ ID NO:1) and Compound 2 to the GFRAL ECD. Measurements are performed at 25° C. Samples are dissolved in HBS-EP+, pH 7.4 (GE Healthcare; 10 mM HEPES pH 7.4+150 mM NaCl+3 mM EDTA+0.05% surfactant P20). Goat […] GDF15 antibody (R&D) is immobilized on the flow cells of a CM5 sensor chip using amine coupling chemistry. GDF15 samples are prepared at 25 μg/ml by dilution into running buffer.
Human GFRAL ECD samples are prepared at final concentrations of 1000, 500, 250, 125, 62.5, 31.3, 15.6, 7.8, 3.9, 2.0 and 0 (blank) nM by dilution into running buffer. The SPR experiment includes the following steps: (1) capturing GDF15 samples on separate flow cells (Fc2, Fc3 and Fc4), (2) injecting 200 μl of human GFRAL ECD over all flow cells at […], (3) dissociating for 600 sec, (4) regenerating chip surfaces with a 10 μl (30 sec) injection of glycine, pH 1.5, at […], and (5) equilibrating chip surfaces with a 10 μl (30 sec) injection of HBS-EP+ at […]. Each concentration of human GFRAL ECD is injected in duplicate.
Data are processed using standard double-referencing and fit to a 1:1 binding model using Biacore T200 Evaluation Software to determine the association rate (kₒₙ, M⁻¹s⁻¹), dissociation rate (koff, s⁻¹) and maximum response (Rmax; response units (RU)). The equilibrium dissociation constant (KD) is calculated from the relationship KD=koff/kₒₙ (M).

EC50 of ERK1/2 phosphorylation (AlphaLISA pERK1/2) in HEK293 cells expressing human GFRAL and human RET51 [1] [pM]	Kd [2] [nM]	koff [2] [s⁻¹]	kon [2] [M⁻¹ s⁻¹]	Binder
27.9	–	–	–	Mature human GDF15 (homodimer of two compounds including SEQ ID NO: 1) (ligand) ARNGDHCPLGPGRCCRLHTVRASLEDLGWADWVLSPREVQVTMCIGACPSQFRAANMHAQIKTSLHRLKPDTVPAPCCVPASYNPMVLIQKTDTGVSLQTYDDLLAKDCHCI
86.2	8.3	0.00871	1.05e+06	Compound 2 (homodimer of two compounds including SEQ ID NO: 2) (Fc fusion, Homodimer linked by at least one interchain disulfide bond between the GDF15 portions; also called homodimer of the Fc-GDF15 Compound 1) EAAGGPSVFLFPPKPKDTLMISRTPEVTCVVVDVSQEDPEVQFNWYVDGVEVHNAKTKPREEQFNSTYRVVSVLTVLHQDWLNGKEYKCKVSNKGLPSSIEKTISKAKGQPREPQVYTLPPSQEEMTKNQVSLTCLVKGFYPSDIAVEWESNGQPENNYKTTPPVLDSDGSFQLESRLTVDKSRWQEGNVFSCSVMHEALHNHYTQKSLSLSLGGGGGAPAPAPAPAPAPAPAPAPAPGGGGGDHCPLGPGRCCRLHTVRASLEDLGWADWVLSPREVQVTMCIGACPSQFRAANMHAQIKTSLHRLKPDTVPAPCCVPASYNPMVLIQKTDTGVSLQTYDDLLAKDCHCI
